Measured values published in PMC11335294, “Directed-evolution mutations enhance DNA-binding affinity and protein stability of the adenine base editor ABE8e”.
Values belong to the molecule of their own block, whether it stands above or below them.

Tests used:
TadA7.10 [1] = molecular target: T1, TadA7.10 (Escherichia coli? (laboratory-evolved …, UniProt P68398 1-167, W23R;H36L;P48A;R51L;L84F;A106V;D108N;H123Y;S146C;D147Y;R152P;E155V;I156F;K157N)); assay: SEC; Superdex 200 Increase 10/300 GL, 20 mM HEPES pH7.5, 500 mM KCl; elution position between 44.0 and 29.0 kDa compared with the monomer mass of about 18.7 kDa
TadA8e (E. coli) = TadA8e (E. coli) (UniProt P68398); assay: as above
TadA7.10-3mut = TadA7.10-3mut (Escherichia coli? (laboratory-evolved …, UniProt P68398 1-167, W23R;H36L;P48A;R51L;L84F;A106V;D108N;T111R;D119N;H123Y;S146C;D147Y;R152P;E155V;I …)); assay: MST; 5 mM Mg2+; MST: 20 mM HEPES pH 7.5, 200 mM KCl, 5 mM MgCl2, 1 mM DTT, 0.05% Tween-20; 100 nM DNA; 120 min at room temperature; settings: protein: recombinant; tags: N-terminal non-cleavable His6; chain copies: 2; label: 5' 6-FAM; single-stranded
TadA7.10 [2] = molecular target: T1, TadA7.10; assay: as above; settings: protein: recombinant; tags: N-terminal non-cleavable His6; chain copies: 2; label: 5' 6-FAM; single-stranded

stoichiometry N (TadA7.10 [1]): 2
Molecule: TadA7.10 (from UniProt P68398 1-167) (enzyme)

stoichiometry N (TadA8e (E. coli)): 2
Molecule: TadA8e (from UniProt P68398 1-167) (enzyme)

B1: 19-nt ssDNA (NTS of 6VPC with five bases mutated at either end) (ssDNA)
DNA: TTCTCTTCCACTTTCTTTT
Kd (TadA7.10-3mut): 38.5 nM
Kd (TadA7.10 [2]): 106 nM
